The star is where a group is joined. Biotin = O=C1N[C@H]2[C@H](CS[C@H]2CCCCC(=O)*)N1

From patent publication US20240383964A1, “De Novo Designed alpha(5) beta(1) Integrin selective minibinders” (UNIVERSITY OF WASHINGTON, priority 2023, published 2024) come the findings set out here.

Experiment [1] concerns the target T1, integrin α5β1 on the cell surface (UniProt P08648 42-1049; P05556 21-798).
T1 construct: whole, on cells; HUVECs in the functional assays; also called α5β1 on wild type K562 (printed also A562) cells; α5β1 on HUVECs
Kind of experiment: cell surface titration on wild type K562 cells, readout Binder Bound Cells (%).

The next experiment relates to HUVECs. Kind of experiment: Scratch-wound cell migration assay. The format is cell-based, human. The conditions noted are these: 20 nM, 12 hours, compared to PBS control. On the procedure:
FIG. 2. (A) BLI binding affinity traces for minibinder or ^8RGD^10/GGG mutant against α5β1 in indicated buffers. Minibinder affinity to integrin α5β1 is dependent on metal ion presence and RGD motif. All affinity data was collected by Octet™ R8 and binding affinity was estimated by the Octet™ ForteBio software package. (B) Minibinder has no detectable affinity in presence of 500 nM or 1000 nM integrin αvβ1, αvβ3, αvβ6, αvβ8 and α8β1. (C) Cell surface titration of minibinder 4584_V5.3 and 00179_v4.1 against K562 cells wild type. […] Integrin α5 subunit and β1 subunit were stained with integrin α5 and active integrin β1 subunit specific antibody, respectively. (E) Quantification of (D). Quantification was counted as a percentage of mb-sheets that colocalized with staining of a5 and b1, a5 only, b1 only, or none; 30-35 sheets were counted in each biological repeat. […] Minibinders were added to HUVEC cells at 0, 0.1, 1, 10, and 100 nM. Vascular stability was analyzed at 12-h timepoints. 20 images were taken in each well at random locations. The scale bar is 100 μm. (G) Quantification of (F). The number of nodes, meshes, and tubes from images in (F) were quantified using an angiogenesis analyzer plug-in in ImageJ. Statistical significance of each were analyzed using One-way Anova Bonferroni's multiple comparison test. […] The wound area of T0 and T12 time points were quantified using imageJ and level of cell migration were calculated using this equation (AreaT0-T12)/AreaT0, all samples were normalized to PBS as fold change.
The inhibitory effect of 20 nM soluble 00179_v4.1 on cell migration was assessed using the scratch-wound assay. HUVECs were seeded with either 00179_v4.1 or PBS (used as a […] control) for 12 hours before capturing images for analysis.

The next experiment concerns the target T2, integrin αvβ8 (UniProt P06756 31-992; P26012 43-684).
T2 construct: also called avb8
Put plainly: BLI (Octet), minibinder on the sensor, integrin αvβ8 in solution [panel αvβ8]. On the procedure: (§1) Because of the large size of integrin and the distribution of integrin α5β1 on the cell surface, it was of interest to measure the affinity of the binders on the cell surface. Using wild type A562, the binding affinity of binders to α5β1 was measured, which is the only RGD binding integrin expressed in WT A562.
(§2) Prior to measurements, streptavidin-coated biosensors were first equilibrated for at least 10 min in assay buffer. Protein binders with an N-terminal biotin were immobilized onto the biosensors by dipping them into a solution with 100 nM protein until the response reached between 10% and 50% of the maximum value followed by dipping sensors into fresh buffer to establish a baseline for 120 s. Titration experiments were performed at 25 degrees Celsius while rotating at 1000 rpm. Association of integrins was allowed by dipping biosensors in solutions containing designed protein diluted in buffer until equilibrium was approached followed by dissociation by dipping the biosensors into fresh buffer solution to monitor the dissociation kinetics. In the minibinder binding cross specificity assays each biotinylated minibinder was loaded onto streptavidin biosensors in equal amounts followed by 2 min of baseline equilibration. The association and dissociation with all the different binders were allowed for 900-1500 s for each step. […]
A general note: In BLI a coated tip is dipped into the sample, and binding shifts an interference pattern.

A further experiment deals with T3, integrin α8β1 (UniProt P53708 39-1012; P05556 21-728).
T3 construct: also called a8b1
Put plainly: BLI (Octet), minibinder on the sensor, integrin α8β1 in solution [panel α8β1]. On the procedure:
as §1, §2

Another experiment deals with T4, integrin αvβ3 (UniProt P06756 31-992; P05106 27-718).
T4 construct: also called avb3
Put plainly: BLI (Octet), minibinder on the sensor, integrin αvβ3 in solution [panel αvβ3]. On the procedure:
as §1, §2

The target in experiment [2] is T5, integrin α5β1 (UniProt P08648 42-995; P05556 21-728).
T5 construct: also called alpha(5) beta(1) integrin; a5b1
Put plainly: BLI (Octet), minibinder on the sensor, integrin α5β1 in solution at labelled concentrations up to 200 nM; buffer 1 mM Ca2+, 1 mM Mg2+, pH 5 [lower left panel]. The protocol: (§3) The binding affinity of each variant was calculated as described in Cao et al, 2022. By combining the beneficial mutations, combination libraries were constructed and screened for binding to α5β1 at an affinity as low as 200 pico-molar (FIG. 4). […] Because RGD binding depends on metal ions, the binders were tested for binding to integrin without metal ions. […] Similarly, mutating the RGD motif to GGG also abolished the binding ability. […] This is surprising, and provides a tool to track integrin α5β1 in endosome and lysosome.
(§4) Prior to measurements, streptavidin-coated biosensors were first equilibrated for at least 10 min in assay buffer. Protein binders with an N-terminal biotin were immobilized onto the biosensors by dipping them into a solution with 100 nM protein until the response reached between 10% and 50% of the maximum value followed by dipping sensors into fresh buffer to establish a baseline for 120 s. Titration experiments were performed at 25 degrees Celsius while rotating at 1000 rpm. Association of integrins was allowed by dipping biosensors in solutions containing designed protein diluted in buffer until equilibrium was approached followed by dissociation by dipping the biosensors into fresh buffer solution to monitor the dissociation kinetics.

Experiment [3] addresses T5, integrin α5β1. Put plainly: BLI, integrin resting buffer (1 mM MgCl2, 1 mM CaCl2, pH 7.4), binder immobilised; BLI, integrin resting buffer pH 7.4 with 1 mM MgCl2, 1 mM CaCl2. On the procedure:
as §3, §4

The target in the next experiment is T6, integrin αvβ1 (UniProt P06756 31-992; P05556 21-728).
T6 construct: also called avb1
Put plainly: BLI (Octet), minibinder on the sensor, integrin αvβ1 in solution [panel αvβ1]. The protocol:
as §1, §2

The target in experiment [4] is T5, integrin α5β1. Put plainly: BLI (Octet), 00179_v4.1 RGD→GGG on the sensor, integrin α5β1 in solution; 1 mM Ca2+, 1 mM Mg2+, pH 7.4 [lower right panel]. The protocol: as §3, §4

T5 sequence (P08648 42-995, chain 1 of 2): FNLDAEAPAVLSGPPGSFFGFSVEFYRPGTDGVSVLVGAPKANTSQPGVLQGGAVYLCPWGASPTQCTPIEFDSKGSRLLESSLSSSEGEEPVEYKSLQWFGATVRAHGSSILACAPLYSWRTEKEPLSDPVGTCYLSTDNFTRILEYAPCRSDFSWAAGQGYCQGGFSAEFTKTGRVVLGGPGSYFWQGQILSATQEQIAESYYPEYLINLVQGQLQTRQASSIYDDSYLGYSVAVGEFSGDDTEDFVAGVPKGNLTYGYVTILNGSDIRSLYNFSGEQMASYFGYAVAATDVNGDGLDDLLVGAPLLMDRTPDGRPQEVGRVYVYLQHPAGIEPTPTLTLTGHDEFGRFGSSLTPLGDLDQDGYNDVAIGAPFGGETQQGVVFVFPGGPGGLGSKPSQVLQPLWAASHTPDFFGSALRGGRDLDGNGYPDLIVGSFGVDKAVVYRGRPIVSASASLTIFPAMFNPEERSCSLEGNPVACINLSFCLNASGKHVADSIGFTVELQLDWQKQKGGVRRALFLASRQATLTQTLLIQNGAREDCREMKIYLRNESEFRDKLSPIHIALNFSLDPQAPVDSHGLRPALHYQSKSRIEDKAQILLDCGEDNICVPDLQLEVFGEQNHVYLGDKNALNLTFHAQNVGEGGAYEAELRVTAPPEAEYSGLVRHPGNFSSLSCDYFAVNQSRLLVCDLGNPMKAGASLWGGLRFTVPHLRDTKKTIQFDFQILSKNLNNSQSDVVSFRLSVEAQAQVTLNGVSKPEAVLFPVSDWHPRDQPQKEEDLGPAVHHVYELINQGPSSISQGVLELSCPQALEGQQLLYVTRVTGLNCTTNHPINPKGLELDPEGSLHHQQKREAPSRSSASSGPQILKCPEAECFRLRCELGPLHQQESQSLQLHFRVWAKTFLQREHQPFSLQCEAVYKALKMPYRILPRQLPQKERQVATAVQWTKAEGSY
T5 sequence (P05556 21-728, chain 2 of 2): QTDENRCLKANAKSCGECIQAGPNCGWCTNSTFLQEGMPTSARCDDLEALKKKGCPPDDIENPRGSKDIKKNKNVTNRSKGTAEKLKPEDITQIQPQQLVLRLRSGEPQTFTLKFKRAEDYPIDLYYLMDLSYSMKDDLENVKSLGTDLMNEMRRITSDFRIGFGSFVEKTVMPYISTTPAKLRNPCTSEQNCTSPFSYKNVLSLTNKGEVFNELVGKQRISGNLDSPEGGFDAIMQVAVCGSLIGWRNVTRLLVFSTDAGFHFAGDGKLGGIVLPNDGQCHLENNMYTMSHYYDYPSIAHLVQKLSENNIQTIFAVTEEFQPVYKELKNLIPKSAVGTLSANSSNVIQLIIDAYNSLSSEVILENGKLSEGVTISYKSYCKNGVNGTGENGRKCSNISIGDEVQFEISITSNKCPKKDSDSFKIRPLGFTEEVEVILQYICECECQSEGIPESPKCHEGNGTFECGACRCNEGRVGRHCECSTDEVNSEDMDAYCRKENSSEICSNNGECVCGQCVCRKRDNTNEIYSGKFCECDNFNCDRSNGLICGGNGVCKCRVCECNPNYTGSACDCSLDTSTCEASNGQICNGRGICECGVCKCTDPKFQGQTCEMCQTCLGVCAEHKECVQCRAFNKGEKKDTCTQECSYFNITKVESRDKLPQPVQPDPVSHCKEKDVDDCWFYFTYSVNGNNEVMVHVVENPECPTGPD
T1 sequence (P08648 42-1049, chain 1 of 2): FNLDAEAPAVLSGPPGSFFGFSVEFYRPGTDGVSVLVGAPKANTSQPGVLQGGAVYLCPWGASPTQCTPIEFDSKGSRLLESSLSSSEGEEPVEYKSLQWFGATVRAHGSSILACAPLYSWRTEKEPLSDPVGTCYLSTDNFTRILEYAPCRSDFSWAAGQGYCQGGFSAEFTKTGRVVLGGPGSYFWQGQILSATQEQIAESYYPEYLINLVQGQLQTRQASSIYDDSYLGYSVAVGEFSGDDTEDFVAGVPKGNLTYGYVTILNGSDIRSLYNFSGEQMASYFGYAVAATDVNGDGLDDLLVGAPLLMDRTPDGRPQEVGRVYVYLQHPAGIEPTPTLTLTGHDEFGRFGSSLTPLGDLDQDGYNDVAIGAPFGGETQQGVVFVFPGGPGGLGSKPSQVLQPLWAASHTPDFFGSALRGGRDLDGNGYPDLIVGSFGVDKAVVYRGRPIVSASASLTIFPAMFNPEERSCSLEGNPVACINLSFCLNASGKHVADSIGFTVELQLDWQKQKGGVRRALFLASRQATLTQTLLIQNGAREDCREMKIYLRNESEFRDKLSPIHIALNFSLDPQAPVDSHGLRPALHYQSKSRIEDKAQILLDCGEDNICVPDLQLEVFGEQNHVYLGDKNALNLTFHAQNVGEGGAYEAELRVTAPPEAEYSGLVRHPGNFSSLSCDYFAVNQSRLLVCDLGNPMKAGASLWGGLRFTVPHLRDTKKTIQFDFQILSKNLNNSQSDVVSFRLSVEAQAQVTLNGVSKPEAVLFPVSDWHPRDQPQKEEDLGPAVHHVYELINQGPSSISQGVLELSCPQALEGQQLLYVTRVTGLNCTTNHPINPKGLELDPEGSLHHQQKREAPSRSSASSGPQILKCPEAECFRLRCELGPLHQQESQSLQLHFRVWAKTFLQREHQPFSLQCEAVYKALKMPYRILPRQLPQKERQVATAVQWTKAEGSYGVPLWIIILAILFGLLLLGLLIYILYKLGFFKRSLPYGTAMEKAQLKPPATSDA
T1 sequence (P05556 21-798, chain 2 of 2): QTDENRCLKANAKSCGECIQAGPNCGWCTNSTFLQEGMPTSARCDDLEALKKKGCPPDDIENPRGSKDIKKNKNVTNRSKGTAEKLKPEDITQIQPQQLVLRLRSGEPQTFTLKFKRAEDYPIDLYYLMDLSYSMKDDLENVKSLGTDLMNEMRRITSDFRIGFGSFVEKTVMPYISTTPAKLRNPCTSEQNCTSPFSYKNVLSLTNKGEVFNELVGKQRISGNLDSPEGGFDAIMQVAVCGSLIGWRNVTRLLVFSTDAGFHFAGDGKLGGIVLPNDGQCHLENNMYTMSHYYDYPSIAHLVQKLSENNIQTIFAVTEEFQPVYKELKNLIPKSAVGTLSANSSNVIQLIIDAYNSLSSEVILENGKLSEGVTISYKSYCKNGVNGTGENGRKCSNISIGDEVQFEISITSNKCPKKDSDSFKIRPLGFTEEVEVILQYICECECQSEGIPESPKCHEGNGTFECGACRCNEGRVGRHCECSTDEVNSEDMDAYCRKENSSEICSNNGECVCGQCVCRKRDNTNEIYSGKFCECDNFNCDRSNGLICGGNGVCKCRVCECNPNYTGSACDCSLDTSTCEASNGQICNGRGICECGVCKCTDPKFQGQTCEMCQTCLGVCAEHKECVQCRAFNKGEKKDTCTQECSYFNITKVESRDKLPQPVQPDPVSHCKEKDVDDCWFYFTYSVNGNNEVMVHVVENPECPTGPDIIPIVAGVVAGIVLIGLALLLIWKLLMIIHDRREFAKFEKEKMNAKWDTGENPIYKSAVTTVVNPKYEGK
T3 sequence (P53708 39-1012, chain 1 of 2): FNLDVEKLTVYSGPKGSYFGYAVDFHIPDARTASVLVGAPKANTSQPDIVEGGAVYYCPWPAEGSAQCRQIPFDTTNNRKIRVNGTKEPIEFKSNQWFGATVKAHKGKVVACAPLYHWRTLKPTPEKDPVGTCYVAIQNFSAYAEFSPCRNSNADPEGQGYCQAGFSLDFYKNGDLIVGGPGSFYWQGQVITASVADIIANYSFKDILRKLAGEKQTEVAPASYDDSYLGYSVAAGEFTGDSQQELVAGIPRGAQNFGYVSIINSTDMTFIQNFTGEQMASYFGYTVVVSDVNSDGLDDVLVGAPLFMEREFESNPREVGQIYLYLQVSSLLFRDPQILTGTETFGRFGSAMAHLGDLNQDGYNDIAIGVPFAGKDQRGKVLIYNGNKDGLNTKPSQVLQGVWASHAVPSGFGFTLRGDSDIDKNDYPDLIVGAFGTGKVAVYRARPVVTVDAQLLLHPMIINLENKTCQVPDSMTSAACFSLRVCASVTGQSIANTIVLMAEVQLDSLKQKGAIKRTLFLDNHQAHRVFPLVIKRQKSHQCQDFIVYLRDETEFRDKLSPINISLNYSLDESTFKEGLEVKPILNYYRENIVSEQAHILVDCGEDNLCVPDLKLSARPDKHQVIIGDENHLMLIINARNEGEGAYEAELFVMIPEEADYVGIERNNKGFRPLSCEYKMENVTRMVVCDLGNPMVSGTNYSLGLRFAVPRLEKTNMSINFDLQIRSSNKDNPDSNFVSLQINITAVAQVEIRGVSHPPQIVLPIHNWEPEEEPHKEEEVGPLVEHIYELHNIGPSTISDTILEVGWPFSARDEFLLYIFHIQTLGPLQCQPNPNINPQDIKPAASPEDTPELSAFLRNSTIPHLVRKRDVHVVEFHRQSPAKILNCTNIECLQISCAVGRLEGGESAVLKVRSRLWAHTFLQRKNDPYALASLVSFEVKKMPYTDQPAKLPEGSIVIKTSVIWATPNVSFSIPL
T3 sequence (P05556 21-728, chain 2 of 2): as the sequence (P05556 21-728, chain 2 of 2) above

B1: xw_a5b1_004584v5.3 (designed binder)
chain: GEVEVHGRGDIPRSSLELFEKVAKELGLKVERNHRTVTVKGVSEEQIRELEEVAKKLGLWVLVRVTE
notes: Tags of the construct as assayed are not specified
For the molecule B1, the binding result in experiment [1] is reported as “binds”.

B2: C6-mb: hexamer formed by mixing 00179_v4.1_N-term-LHD101A (SEQ ID NO:16) and C6-71-9-1_101B (SEQ ID NO:17) at 6:1 ratio (protein)
chain 1: MSGRQEKVLKSIEETVRKMGVTMETHRSGNEVKVVIKGLHIKQQRQLYRDVRETSKKQGVETEIEVEGDTVTIVVREGGSGGSELIIHGRGDFPRSELERLRERFERLGIKVRVDHKVLTLIGISEEEAERLARELRKRGIWVEIRKGSGSHHWGSTHHHHHH
chain 2: MGRQEKVLKSIEETVRKMGVTMETHRSGNEVKVVIKGLHESQQEQLLEDVLRTAEKQGVRVRIRFKGDTVTIVVREGSPEEILERAKESLERAKEAFERGDEEEFRKAAEKALELAKRLVEQAKKEGDPELVFEAARVALWVAWLAAWFGDKEVFKKAAESALEVAKRLVEVAKEEGDPELVLKAAFVALLVAIMAVILGDKEVFKKAAESALEVAKRLVEIAAREGDPELVEEAAKVAELVRELAKLMGDEEVYEKARETAREVRLFLLFVRIWEGGGGSLEHHHHHH
modifications: 6:1 hexameric assembly; VARIANT 1 optionally absent; VARIANT 148..163 optionally absent; VARIANT 282..289 optionally absent
On to B2, for which the cell migration result in the experiment on HUVECs is on record as “even more pronounced inhibition of cell migration”; with HUVECs (listed as C6-oligomer), “inhibits cell migration”.

B3: xw_a5b1_00179_v4.1 (designed binder)
chain: SELIIHGRGDFPSSELERLRERFERLGIKVRVDHKVLTLIGISEEEAERLARELRKRGIWVEIRK
modifications: also: N-terminal avi-tag/biotin for BLI, His6 tag at N- or C-terminus, tag sequences not given here
notes: a His6 tag stood at the N- or C-terminus
Regarding B3, the binding result with integrin αvβ8, with integrin α8β1, with integrin αvβ3 and with integrin αvβ1 was “no binding (tested: 500 nM)” in each case. The EC50 (read off the curve) (commonly the midpoint of the concentration-response curve) in experiment [1] was about 2 nM. For the same molecule, the Kd (usually the constant that tells how readily two partners part at equilibrium) stood at 40 nM in the experiment with integrin α5β1 [2] and 0.3 nM in the experiment with integrin α5β1 [3].

B4: 8RGD10/GGG mutant of minibinder 00179_v4.1 (designed binder)
chain: Biotin-SELIIHGGGGFPSSELERLRERFERLGIKVRVDHKVLTLIGISEEEAERLARELRKRGIWVEIRK
notes: also called RGD/GGG mutant
Consider B4, for which, in the experiment with integrin α5β1 [4], the binding result is listed as “no binding (tested: 1000 nM)”.
